Paper PMC3480732

How the values were obtained:
[1] = Figure S3B, method not described in text; details: glycan lost; control: wild type
[2] = transcriptional activity assay; details: glycan lost; control: wild type
[3] = IP, anti-ubiquitin blot with MG132, HEK 293T; details: control: wild type

| Protein | other: phosphorylation [1] | other: transcriptional activity [2] | other: ubiquitination ([3]; glycan lost) | other: ubiquitination ([3]; glycan gained) |
| --- | --- | --- | --- | --- |
| PGC-1α: S333A (protein) parent chain: MAWDMCSQDSVWSDIECAALVGEDQPLCPDLPELDLSELDVNDLDTDSFLGGLKWCSDQSEIISNQYNNEPANIFEKIDEENEANLLAVLTETLDSLPVDEDGLPSFDALTDGAVTTDNEASPSSMPDGTPPPQEAEEPSLLKKLLLAPANTQLSYNECSGLSTQNHAANHTHRIRTNPAIVKTENSWSNKAKSICQQQKPQRRPCSELLKYLTTNDDPPHTKPTENRNSSRDKCASKKKSHTQPQSQHAQAKPTTLSLPLTPESPNDPKGSPFENKTIERTLSVELSGTAGLTPPTTPPHKANQDNPFKASPKLKPSCKTVVPPPTKRARYSECSGTQGSHSTKKGPEQSELYAQLSKSSGLSRGHEERKTKRPSLRLFGDHDYCQSLNSKTDILINISQELQDSRQLDFKDASCDWQGHICSSTDSGQCYLRETLEASKQVSPCSTRKQLQDQEIRAELNKHFGHPCQAVFDDKSDKTSELRDGDFSNEQFSKLPVFINSGLAMDGLFDDSEDESDKLSYPWDGTQPYSLFDVSPSCSSFNSPCRDSVSPPKSLFSQRPQRMRSRSRSFSRHRSCSRSPYSRSRSRSPGSRSSSRSCYYYESSHYRHRTHRNSPLYVRSRSRSPYSRRPRYDSYEAYEHERLKRDEYRKEHEKRESERAKQRERQKQKAIEERRVIYVGKIRPDTTRTELRDRFEVFGEIEECTVNLRDDGDSYGFITYRYTCDAFAALENGYTLRRSNETDFELYFCGRKQFFKSNYADLDTNSDDFDPASTKSKYDSLDFDSLLKEAQRSLRR | no change | no change | increases | – |
| PGC-1α: OGT overexpression (protein) parent chain: MAWDMCSQDSVWSDIECAALVGEDQPLCPDLPELDLSELDVNDLDTDSFLGGLKWCSDQSEIISNQYNNEPANIFEKIDEENEANLLAVLTETLDSLPVDEDGLPSFDALTDGAVTTDNEASPSSMPDGTPPPQEAEEPSLLKKLLLAPANTQLSYNECSGLSTQNHAANHTHRIRTNPAIVKTENSWSNKAKSICQQQKPQRRPCSELLKYLTTNDDPPHTKPTENRNSSRDKCASKKKSHTQPQSQHAQAKPTTLSLPLTPESPNDPKGSPFENKTIERTLSVELSGTAGLTPPTTPPHKANQDNPFKASPKLKPSCKTVVPPPTKRARYSECSGTQGSHSTKKGPEQSELYAQLSKSSGLSRGHEERKTKRPSLRLFGDHDYCQSLNSKTDILINISQELQDSRQLDFKDASCDWQGHICSSTDSGQCYLRETLEASKQVSPCSTRKQLQDQEIRAELNKHFGHPCQAVFDDKSDKTSELRDGDFSNEQFSKLPVFINSGLAMDGLFDDSEDESDKLSYPWDGTQPYSLFDVSPSCSSFNSPCRDSVSPPKSLFSQRPQRMRSRSRSFSRHRSCSRSPYSRSRSRSPGSRSSSRSCYYYESSHYRHRTHRNSPLYVRSRSRSPYSRRPRYDSYEAYEHERLKRDEYRKEHEKRESERAKQRERQKQKAIEERRVIYVGKIRPDTTRTELRDRFEVFGEIEECTVNLRDDGDSYGFITYRYTCDAFAALENGYTLRRSNETDFELYFCGRKQFFKSNYADLDTNSDDFDPASTKSKYDSLDFDSLLKEAQRSLRR | – | – | – | decreases |
